Results from the nanobody polyreactivity screen of Harvey et al. (2022).

Assay: yeast display, Sf9 membrane polyspecificity reagent, FACS + sequencing; frameworks hold sequencing errors
In short: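 Sorting gates, low and high (top ~1%), were placed on anti-HA fluorescence to track expression and on streptavidin fluorescence to track reagent binding. A clone's polyreactivity label is taken from the gate it came out of. The reagent was 10% biotinylated, detergent-solubilized Sf9 membrane, applied for 1 hour at 4 °C to galactose-induced yeast display cells.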

Sequence	polyreactivity (PSR sort gate)
QVQLVESGGGLVQAGGSLRLSCAASGTTFPAYAMGWYRQAPGKERELVAVINLSGSTYYADSVKGRFTISRDNAKNTVYLQMNSLKPEDTAVYYCNARQYDYYRYGYWGQGTQVTVSS	low polyreactivity
QVQLVESGGGLVKAGGSIRISCAPSGRIFNQYGIGRNRQAPGKEMELVDAIRSGDSTNYADSVKGRFTISRDNAKNTFYLQMNRLKPEDTAVYFCARDRPGDYAGSDYWGQGTQVTVSS	low polyreactivity
QVQLVESGGGLVQAGGSLRLSCAASGRIFNGYAMGWYRQAPGKERELVASITSAGSTYFADSVTGRVTISRDNAKNTVYVQMNRLKPEDTAVYYCAADSYSVYYYTYDSWGQGTQVTVSS	low polyreactivity
QVQLVESGGGLVQAGGSLRLSCAASGRTFTGYAMGWYRQAPGKERELVASISGSGGRTNYADSVKGRFTISRDNAKNTVYLQMNSLKPEDTAVYYCNARAHSYRKSSYIYLPYSYDYWGQGTQVTVSS	high polyreactivity
QVQHVESGGGLVQAGGSLRLSCAASGSTIRNYAMGWYRQAHGKERELVAAISSGGRTYYADSVKGRFTISRDNAKNPVYLQMTSLKPEDTAVYYCAARVYYWSFAGILYTPTGGYWGQGTQVTVSS	high polyreactivity
QVQLVESGGGLVQAGGSLRLSCAASGSIFVVNAMGWYRQAPGKERELVAAITFSGDSTYYADSVKGRFTISRDNAKNTVYLQMNSLKPEDTAVYYCAAARRSSHWFTYDYWGQGTQVTVSS	high polyreactivity
QVQLVESGGGLVQAGGSLRLSCAASGRTIWVYAMGWYRQAPGKERELVAAIRWSAGTTYYADSVKGRFTISRDNAKNTVYLQMNSLKPEDTAVYYCAADASSRYGVLEVDYWGQGTQVTVSS	high polyreactivity
QVQLVESGGGLVQAGGSLRLSCAASGITFVTYAMGWSRQAPGKERELVADISWRGTSTNYADSVKGRFTISRDNAKNTVYFQMISLKPEDTAVYYCAAKQTYTRLHYLGPSVWDNYDYWGQGTQVTVSS	high polyreactivity
QVQLVESGGGLVQAGGSLRLSCAASGPTFYKYAMGWYRQAPGKERELVATITRRGGSTYYADSVKGRFTISRDNAKNTVYLQMNSLKPEDTAVYYCAKEIFQKGPDGHDYWGQGTQVTVSS	low polyreactivity
QVQLVESGGGLDQAGGSLRLSSAASGSIFVDNAMGWYRQAPGKERELVAAISRRGGSTYYADSVKGRFTISRDNAKNTVYLQMNSLKPEDTAVYYCNKKNIQFYQGASDYWGQGTQVTVSS	high polyreactivity
QVQLVESGGGLVQAGGSLRLSCAASGSIFGYNAMGWYRQAPGKERELDAAISISDGSTYYADSVKGRFTISRDNAKNTVYFQMNSLKPEDTAVYYCAAPRDLSGYGNFGNGPFYYWGQGTQVTVSS	low polyreactivity
QVQLVESGGGLDQAGGSLRLSCAASGFIFPGNAMGWYRQAPGKERELVAAISWRVGRTYYADSVKGRFTISRDNAKNTVYLQMNSLKPEDTAVYYCAVARSSPEYYYWGQGTQVTVSS	high polyreactivity
QVQLVESGGGLVQAGGSLRLSCAASGSTFYANVMGWYRQAPGKERELVAAIRWSGSSTYYADSVKGRFTISRDNAKNTVYLQMNSLKPEDTAVYYCNARYDFSYDYWGQGTQVTVSS	low polyreactivity
QVQLVESGGGLVQAGGSLRLSCASSGFTFPYYAMGGYRQAPGKERELVAAISWGGGSTYYADSVKGRFTISRDNAKNTVYLQMNSLKPEDTAVYYCNAYEYLSAGYDYWGQGTQVTVSS	low polyreactivity
QVQLVESGGGLVQAGGSLRLSCAASGLTFPIYAMGWYRQAPGKEREFVAVNTTSGGSTYYADSVKGRFTISRDNAKNTVYLQMNILKPEDTAVYYCNARPEYTYWPGYIYWGEGTQVTVSS	high polyreactivity
NVQLVESGGGLVQAGGSLRLSCAASGGIFYRYAMGWYRQAPGKEWELVATISRRGGRTYYADSVKGRFTISRDNEKNTVYLQMNSLKPEDTAVYYCAADEWQSGHCLEDDYWGQGTQVTVSS	high polyreactivity

Sequence	polyreactivity (PSR sort gate)
QVQLVESGGGLVQAGGSLRLSCAASGSTFQSYAMGWYRQAPGKERELVAAITTTGTRTYYADSVKGRFTISRDNAKNTVYLQMNSLKPEDTAVYYCNAQRLQAHRTSRRYGYWGQGTQVTVSS	high polyreactivity
QVQLVESGGRLVQAGGSLRLSCADSGRTFYLYAMGWYRQAPGKEREFVADITFSGASTDYAASVKGRFTISRDNAKNTVYLQMNSLKPEDTAVYYCNADIAHVCWWSYPTDDYWGQGTQVTVSS	high polyreactivity
QVQLVESGGGLVEAGGSLRLSCAASGSILYYNAMGWYRQAPGKERELVAAISTRGGSTYYADSVKGRFTSSRDNAKKTVYLQMNSLKPEDTAVYYCAADHNVIWGYYYWGQGTQVTVSS	high polyreactivity
QVQLVESGGGLVQAGGSLRLSCAASGTFDAYAMGWYRQAPGKERELVASISSSGGSTYYADSVKGRFTISRDNAKNTVYLQMNSLKPEDTAVYYCAATDFWYSGYYWGQGTQVTVSS	low polyreactivity
QVQLVESGGGLVQAGGSLRLSCAASGRIFRYYTMGWYRPAPGKERELVAAISWTGASTYYADSVKGRFTISRDNAKNTVYLQMNSLKPEDTAVYYCAADSYIAHHGFAMDYWGQGTQVTVSS	low polyreactivity
QVQLVESGGGLVQAGGSLRLSCAASGIIFPLYMGWDRQAPGTERVLVAAINSIGGRTYYADSVKGRFTISRDNAKNTVYLQMNSLKPEDTAVYYCNAVPVGWRYRQYDYWGQGTQVTVSS	high polyreactivity
QDQLVESGGGLVQAGGSLRLSCAASGSISVANAMGWYRQAPGKERELVAAISWRSDSTYYADSVKGRFTISRDNAKNTVYLQMNSLKPEDTAVYYCAASQYPLIWYDYWGQGTQVTVSS	low polyreactivity
QVQLVESGGGLVQAGGSLRLSCAASGFIFGRYAMGWYRQAPGKERELVAAISRSGGSTHYADSVKGRFTISRDNAKNTVYLQMISLKPEDTAVYYCAAVWPFDRSRMDYWGQGTQVTVSS	high polyreactivity
QVQLVESGGGLVQAGGSLRLSCAASGFTFYYYTMGWYRQAPGKERELVAAITLSGSTTYYADSVKGRFTISRDNAKNTVYLQMNSLKPEDTAVYYCAAGFSYEWGYPTFDYWGQGTQVTVSS	low polyreactivity
QVQLVESGGGLVQAGGSLRLSCAASGITFYDNVMGWYRQAPGKERELVAAITSGGSTNYGDSVKGRFTFSRDNAKNTVYLQMNSLKPEETAVYYCAAQPRVVYEFPYRYGYWGQGTQVTVSS	low polyreactivity
QVQLVESGGGLVHAGGSLRLSCAASGSIFTRNAMGWYRQAPGKERELVAAISRRGVSTYYADSVKGRFTISRDNAKNTVYLQMNSLKPEDTAVYYCNATIRYYRRGKLYDYWGQGTQVTVSS	high polyreactivity
QVQLVESGGGLVQAGGSLRLSCAASGLTFGVYAMGWYRPAPGKERELVAAITATGGSTYYADSVKGRFTISRDNAKNTVYLQMNSLKPEDTAVYYCAKPDFYRMGYWGQGTQVTVSS	low polyreactivity
QVQLVESGGGLVQAGGSLRLSCAASGITFEYYTMGWYRQAPGKERELVAAITQGGGTTYYADSVKGRFTISRDNAKNTVYLQMNSLKPEDTAVYYCAAYVGYLLLYYPTYYYWGQGTQVTVSS	low polyreactivity
QVQLVESGGGLVQAGGSLRLSCAASGRTVNAMGWYRQAPGKERELVAAINSGTSTYADSVKGRFTISRDNAKNTVYLQMNSLKPEDTAVYYCAKTYFWPFHGRFVGYDYWGQGTQVTVSS	low polyreactivity
QVQLVESGGGLVQAGCILRLSCAASGFTFSWYAMGWYRQARGKERELVAAISYSGDSTYYADSVKGRFTISRDNAKNTVYLQMNSLKPEDTAVYYCARRSYYATYYPQPFGYNYLGQGTQVTVSS	high polyreactivity
